In PMC8778164, “Towards Complete Tumor Resection: Novel Dual-Modality Probes for Improved Image-Guided Surgery of GRPR-Expressing Prostate Cancer” (Pharmaceutics, 2022):

How the values were obtained:
[1] = Stability in PBS at 37 °C (iTLC); format: physicochemical; settings: intact labeled ligand after incubation at 37 °C in PBS, n = 1
Procedure: Stability in PBS was determined by incubating 20 µL of the labeled compounds (∼11 MBq) in PBS (80 µL) at 37 °C. Radiochemical purity was determined by iTLC at 30 min, 1 h, 2 h and 4 h. Stability in the serum was carried out by adding 70 µL of the labeled compound (∼35 MBq) to 330 µL of mouse serum (Merck, Haarlerbergweg, The Netherlands). The mixture was incubated at 37 °C. At different time points (30 min, 1 h, 2 h and 4 h), an aliquot of the mixture (50 µL) was added to 50 µL ACN. The vial was vortexed and centrifuged at 10,000 rpm for 20 min and the supernatant was analyzed by iTLC.

[2] = Distribution coefficient (LogD7.4), shake-flask method; format: physicochemical; settings: n-octanol/PBS pH 7.4, n = 3; read-out: Log D7.4
Procedure: Distribution coefficients (LogD7.4) for the ^111In-labeled compounds were determined by a shake-flask method. The experiments were performed in triplicate for each radioligand. A sample containing the radioligand (0.5–2.0 MBq) was dissolved in 1 mL solution of phosphate-buffered saline (0.01 M, pH 7.4) and n-octanol (v:v = 1:1). The vials were vortexed vigorously and then centrifuged at 10,000 rpm for 3 min, for phase separation. Samples (10 μL) of each phase were taken out and analyzed using a gamma counter. LogD7.4 values were calculated, using the following equation: LogD7.4 = log {(counts in n-octanol phase)/(counts in PBS phase)}.

[3] = In vivo SPECT/CT imaging, VOI quantification; settings: male, Balb/c nu/nu, mouse, tumor and kidneys (in vivo VOIs), iv, total radioactivity; from SPECT VOI %IA/mL, 2 h p.i., i.v., non-blocked, n = 3; read-out: Tumor-to-kidney ratio (SPECT)
Procedure: Seven-week-old male Balb/c nu/nu-specific and opportunistic pathogen-free (SOPF) mice (Janvier Labs, Le Genest-Saint-Isle, France) were housed in individually ventilated cages, with 4 mice per cage. Upon arrival, mice were acclimated for 1 week, with access to food and water ad libitum. […]
Mice (n = 3 per probe) were intravenously injected in the tail vein with 200 µL of Kolliphor® HS 15 (Merck, Haarlerbergweg, The Netherlands) in PBS (0.06 mg/mL) containing [^111In]In-12 (13.40 ± 0.76 MBq, ~670 pmol) or [^111In]In-15 (17.50 ± 1.78 MBq, ~875 pmol). […] The CT and registered, attenuation-corrected SPECT images were analyzed using PMOD (PMOD 3.9, Zurich, Switzerland) and quantification was performed by placing volumes of interest (VOIs) around the tumors and kidneys. An Eppendorf tube filled with a solution of indium-111 of a known activity was measured to determine the calibration factor. The total activity measured in the VOI was divided by the volume of all VOI pixel values and multiplied by the calibration factor to obtain the percentage of injected activity per volume unit (%IA/mL).

[4] = tested on: PC-3-xenograft Balb/c nu/nu mice; test: Ex vivo optical (fluorescence, IVIS) imaging of organs; format: in vivo, mouse; settings: ex vivo after dissection, ex/em 640/680 nm
Procedure: Seven-week-old male Balb/c nu/nu-specific and opportunistic pathogen-free (SOPF) mice (Janvier Labs, Le Genest-Saint-Isle, France) were housed in individually ventilated cages, with 4 mice per cage. Upon arrival, mice were acclimated for 1 week, with access to food and water ad libitum. Mice were subcutaneously inoculated on the right shoulder with PC-3 cells (5 × 10^6 cells suspended in 100 µL of 1/3 Matrigel (Corning Inc., Corning, NY, USA) and 2/3 Hank’s balanced salt solution (Gibco). PC-3 xenografts were allowed to grow for 3 weeks. Tumor sizes were 391 ± 173 mm^3 at the start of the studies. All animal experiments were approved by the Animal Welfare Committee of the Erasmus MC and were conducted in agreement with institutional guidelines (license number: AVD101002017867, 28 September 2017).
Before gamma counter measurements, the tumor half, pancreas, kidneys, lungs, small intestine, large intestine, liver, muscle, and bone were placed in two petri dishes and ex vivo optical imaging was performed with the IVIS Spectrum system (Perkin Elmer, Waltham, MA, USA) using the following settings for all measurements: FOV 12.6 cm, medium binning, f2, 0.5 s exposure with an excitation/emission filter of 640 nm/680 nm. Living Image version 4.5.2 software (Perkin Elmer) was used to perform data analysis by drawing a region of interest around the organ/tissue to quantify the radiant efficiency {(photons/second/cm^2/steradian)/(μW/cm^2)}.

[5] = blocked with 150 nmol unlabeled NeoB, n = 1
[6] = non-blocked, n = 3, listed as [111In]In‐15
[7] = non-blocked, n = 3, listed as [111In]In‐12

SMILES: CC(C)CC(CC(C)C)NC(=O)[C@H](Cc1c[nH]cn1)NC(=O)CNC(=O)[C@@H](NC(=O)[C@H](C)NC(=O)[C@H](Cc1c[nH]c2ccccc12)NC(=O)[C@H](CCC(N)=O)NC(=O)[C@@H](Cc1ccccc1)NC(=O)CCOCCOCCOCCOCCNC(=O)[C@H](CCCCNC(=O)OC1CCCC2C=NN=C(c3ccc(CNC(=O)CCCCC[N+]4=C(/C=C/C=C/C=C5N(C)c6ccc(S(=O)(=O)O)cc6C5(C)C)C(C)(C)c5cc(S(=O)(=O)[O-])ccc54)cc3)C2CC1)NC(=O)CN1CCN(CC(=O)O)CCN(CC(=O)O)CCN(CC(=O)O)CC1)C(C)C (stereo partly drawn) [[^111In]In-15, metal not drawn]
- Stability in PBS (%) 30 min [1]: 83.0%
- Stability in PBS (%) 1 h [1]: 71.8%
- Stability in PBS (%) 2 h [1]: 67.0%
- Stability in PBS (%) 4 h [1]: 57.1%
- logD [2]: -1.75 ± 0.09
- tissue to tissue ratio at 2 h [3]: 0.49 ± 0.05
- Fluorescent signal, bone (average radiant efficiency) [4, 5]: 0.55 × 10^8 p/sec/cm^2/sr per µW/cm
- Fluorescent signal, kidneys (average radiant efficiency) [4, 5]: 6.09 × 10^8 p/sec/cm^2/sr per µW/cm
- Fluorescent signal, large intestine (average radiant efficiency) [4, 5]: 0.49 × 10^8 p/sec/cm^2/sr per µW/cm
- Fluorescent signal, liver (average radiant efficiency) [4, 5]: 1.75 × 10^8 p/sec/cm^2/sr per µW/cm
- Fluorescent signal, lungs (average radiant efficiency) [4, 5]: 2.93 × 10^8 p/sec/cm^2/sr per µW/cm
- Fluorescent signal, muscle (average radiant efficiency) [4, 5]: 0.96 × 10^8 p/sec/cm^2/sr per µW/cm
- Fluorescent signal, pancreas (average radiant efficiency) [4, 5]: 1.17 × 10^8 p/sec/cm^2/sr per µW/cm
- Fluorescent signal, small intestine (average radiant efficiency) [4, 5]: 0.38 × 10^8 p/sec/cm^2/sr per µW/cm
- Fluorescent signal, tumor (average radiant efficiency) [4, 5]: 1.47 × 10^8 p/sec/cm^2/sr per µW/cm
- Fluorescent signal, bone (average radiant efficiency) ([4]; non-blocked, n = 3): 0.74 ± 0.24 × 10^8 p/sec/cm^2/sr per µW/cm
- Fluorescent signal, kidneys (average radiant efficiency) ([4]; non-blocked, n = 3): 7.80 ± 0.92 × 10^8 p/sec/cm^2/sr per µW/cm^2
- Fluorescent signal, large intestine (average radiant efficiency) ([4]; non-blocked, n = 3): 0.94 ± 0.28 × 10^8 p/sec/cm^2/sr per µW/cm
- Fluorescent signal, liver (average radiant efficiency) ([4]; non-blocked, n = 3): 2.38 ± 0.21 × 10^8 p/sec/cm^2/sr per µW/cm
- Fluorescent signal, lungs (average radiant efficiency) ([4]; non-blocked, n = 3): 2.25 ± 0.70 × 10^8 p/sec/cm^2/sr per µW/cm
- Fluorescent signal, muscle (average radiant efficiency) ([4]; non-blocked, n = 3): 1.08 ± 0.16 × 10^8 p/sec/cm^2/sr per µW/cm
- Fluorescent signal, pancreas (average radiant efficiency) ([4]; non-blocked, n = 3): 5.12 ± 1.93 × 10^8 p/sec/cm^2/sr per µW/cm^2
- Fluorescent signal, small intestine (average radiant efficiency) ([4]; non-blocked, n = 3): 0.85 ± 0.04 × 10^8 p/sec/cm^2/sr per µW/cm
- Fluorescent signal, tumor (average radiant efficiency) ([4]; non-blocked, n = 3): 4.66 ± 1.35 × 10^8 p/sec/cm^2/sr per µW/cm^2
- Fluorescent signal, kidneys (average radiant efficiency) [4, 6]: 7.80 ± 0.92 × 10^8 p/sec/cm^2/sr per µW/cm
- Fluorescent signal, pancreas (average radiant efficiency) [4, 6]: 5.12 ± 1.93 × 10^8 p/sec/cm^2/sr per µW/cm
- Fluorescent signal, tumor (average radiant efficiency) [4, 6]: 4.66 ± 1.35 × 10^8 p/sec/cm^2/sr per µW/cm

SMILES: CC(C)CC(CC(C)C)NC(=O)[C@H](Cc1c[nH]cn1)NC(=O)CNC(=O)[C@@H](NC(=O)[C@H](C)NC(=O)[C@H](Cc1c[nH]c2ccccc12)NC(=O)[C@H](CCC(N)=O)NC(=O)[C@@H](Cc1ccccc1)NC(=O)COCC(=O)Nc1ccc(CNC(=O)[C@H](CCCCNC(=O)CCOCCOCCOCCOCCNC(=O)OC2CCCC3C=NN=C(c4ccc(CNC(=O)CCCCC[N+]5=C(/C=C/C=C/C=C6N(C)c7ccc(S(=O)(=O)O)cc7C6(C)C)C(C)(C)c6cc(S(=O)(=O)[O-])ccc65)cc4)C3CC2)NC(=O)CN2CCN(CC(=O)O)CCN(CC(=O)O)CCN(CC(=O)O)CC2)cc1)C(C)C (stereo partly drawn) [[^111In]In-12, metal not drawn]
- Stability in PBS (%) 30 min [1]: 85.8%
- Stability in PBS (%) 1 h [1]: 80.1%
- Stability in PBS (%) 2 h [1]: 75.0%
- Stability in PBS (%) 4 h [1]: 73.1%
- logD [2]: -1.66 ± 0.01
- tissue to tissue ratio at 2 h [3]: 0.47 ± 0.05
- Fluorescent signal, bone (average radiant efficiency) [4, 5]: 0.32 × 10^8 p/sec/cm^2/sr per µW/cm
- Fluorescent signal, kidneys (average radiant efficiency) [4, 5]: 5.42 × 10^8 p/sec/cm^2/sr per µW/cm
- Fluorescent signal, large intestine (average radiant efficiency) [4, 5]: 0.47 × 10^8 p/sec/cm^2/sr per µW/cm
- Fluorescent signal, liver (average radiant efficiency) [4, 5]: 2.42 × 10^8 p/sec/cm^2/sr per µW/cm
- Fluorescent signal, lungs (average radiant efficiency) [4, 5]: 2.88 × 10^8 p/sec/cm^2/sr per µW/cm
- Fluorescent signal, muscle (average radiant efficiency) [4, 5]: 0.76 × 10^8 p/sec/cm^2/sr per µW/cm
- Fluorescent signal, pancreas (average radiant efficiency) [4, 5]: 0.66 × 10^8 p/sec/cm^2/sr per µW/cm
- Fluorescent signal, small intestine (average radiant efficiency) [4, 5]: 0.44 × 10^8 p/sec/cm^2/sr per µW/cm
- Fluorescent signal, tumor (average radiant efficiency) [4, 5]: 1.67 × 10^8 p/sec/cm^2/sr per µW/cm
- Fluorescent signal, bone (average radiant efficiency) ([4]; non-blocked, n = 3): 0.40 ± 0.11 × 10^8 p/sec/cm^2/sr per µW/cm
- Fluorescent signal, kidneys (average radiant efficiency) ([4]; non-blocked, n = 3): 9.41 ± 0.92 × 10^8 p/sec/cm^2/sr per µW/cm^2
- Fluorescent signal, large intestine (average radiant efficiency) ([4]; non-blocked, n = 3): 0.68 ± 0.19 × 10^8 p/sec/cm^2/sr per µW/cm
- Fluorescent signal, liver (average radiant efficiency) ([4]; non-blocked, n = 3): 2.20 ± 0.09 × 10^8 p/sec/cm^2/sr per µW/cm
- Fluorescent signal, lungs (average radiant efficiency) ([4]; non-blocked, n = 3): 1.93 ± 0.18 × 10^8 p/sec/cm^2/sr per µW/cm
- Fluorescent signal, muscle (average radiant efficiency) ([4]; non-blocked, n = 3): 0.78 ± 0.08 × 10^8 p/sec/cm^2/sr per µW/cm
- Fluorescent signal, pancreas (average radiant efficiency) ([4]; non-blocked, n = 3): 6.32 ± 0.50 × 10^8 p/sec/cm^2/sr per µW/cm^2
- Fluorescent signal, small intestine (average radiant efficiency) ([4]; non-blocked, n = 3): 0.85 ± 0.30 × 10^8 p/sec/cm^2/sr per µW/cm
- Fluorescent signal, tumor (average radiant efficiency) ([4]; non-blocked, n = 3): 4.31 ± 1.03 × 10^8 p/sec/cm^2/sr per µW/cm^2
- Fluorescent signal, kidneys (average radiant efficiency) [4, 7]: 9.41 ± 0.92 × 10^8 p/sec/cm^2/sr per µW/cm
- Fluorescent signal, pancreas (average radiant efficiency) [4, 7]: 6.32 ± 0.50 × 10^8 p/sec/cm^2/sr per µW/cm
- Fluorescent signal, tumor (average radiant efficiency) [4, 7]: 4.31 ± 1.03 × 10^8 p/sec/cm^2/sr per µW/cm
